Consider one molecule from paper PMC11531469, “Molecular mechanism of parental H3/H4 recycling at a replication fork” (Nature Communications, 2024).

Common to all, as to conditions: both partners purified
Assay [1] has as its target T1, histone H3/H4 tetramer (UniProt P61830 1-136; P02309 1-103). Put plainly: native gel or EMSA; 0.5 uM Cdc45-7HIS mixed with 0-2 uM H3/H4 tetramer, 15 min at 30 °C; 25 mM HEPES-KOH pH 7.5, 1 mM EDTA, 10% glycerol, 0.05% Tween 20, 300 mM KCl; loss of the free Cdc45 band on 5-20% Tris-Glycine gel, Coomassie; apparent. For orientation: In EMSA bound probe runs differently from free probe, usually more slowly.

The target of assay [2] is T1, histone H3/H4 tetramer. The assay can be described thus: native gel or EMSA; 0.5 uM Cdc45-7HIS mixed with 0-2 uM H3/H4 tetramer, 15 min at 30 °C; 25 mM HEPES-KOH pH 7.5, 1 mM EDTA, 10% glycerol, 0.05% Tween 20, 750 mM KCl; loss of the free Cdc45 band on 5-20% Tris-Glycine gel, Coomassie; apparent.
The target of assay [3] is T1, histone H3/H4 tetramer. Put plainly: native gel or EMSA; 0.5 uM Cdc45-7HIS mixed with 0-2 uM H3/H4 tetramer, 15 min at 30 °C; 25 mM HEPES-KOH pH 7.5, 1 mM EDTA, 10% glycerol, 0.05% Tween 20, 150 mM KCl; loss of the free Cdc45 band on 5-20% Tris-Glycine gel, Coomassie; apparent.

B1: Cdc45-7HIS (budding yeast Cdc45, wild type) (natural protein)
chain: ISQFSEAYNKILRNSSSHSSCQLVIFVSCLNIDALCATKMLSLLFKKQLVQSQIVPIFGYSELRRHYSQLDDNINSLLLVGFGGVIDLEAFLEIDPQEYVIDTDEKSGEQSFRRDIYVLDAHRPWNLDNIFGSQIIQCFDDGTVDDTLGEQKEAYYKLLELDEESGDDELSGDENDNNGGDDEATDADEVTDEDEEDEDETISNKRGNSSIGPNDLSKRKQRKKQIHEYEGVLEEYYSQGTTVVNSISAQIYSLLSAIGETNLSNLWLNILGTTSLDIAYAQVYNRLYPLLQDEVKRLTPSSRNSVKTPDTLTLNIQPDYYLFLLRHSSLYDSFYYSNYVNAKLSLWNENGKKRLHKMFARMGIPLSTAQETWLYMDHSIKRELGIIFDKNLDRYGLQDIIRDGFVRTLGYRGSISASEFVEALTALLEVGNSTDKDSVKINNDNNDDTDGEEEEDNSAQKLTNLRKRWVSNFWLSWDALDDRKVELLNRGIQLAQDLQRAIFNTGVAILEKKLIKHLRIYRLCVLQDGPDLDLYRNPLTLLRLGNWLIECCAESEDKQLLPMVLASIDENTDTYLVAGLTPRYPRGLDTIHTKKPILNNFSMAFQQITAETDAKVRIDNFESSIIEIRREDLSPFLEKLTLSGLL
notes: Cdc45, budding yeast; also called WT; source: Escherichia coli, purified
Consider B1, for which the Kd was determined as 90 nM in the assay with histone H3/H4 tetramer [1], 216 nM in the assay with histone H3/H4 tetramer [2] and 68 nM with histone H3/H4 tetramer [3].
